Source: IntAct's records for PubMed 19366670

B1: 10 kDa anti-sigma factor (Enterobacteria phage T4), P32267 (parent)
chain: MNKNIDTVREIITVASILIKFSREDIVENRANFIAFLNEIGVTHEGRKLNQNSFRKIVSELTQEDKKTLIDEFNEGFEGVYRYLEMYTNK

Variants of: B1
Settings: with rpob_ecoli rpoB

Question: MNKNIDTVREIITVASILIKFSREDIVENRANFIAFLNEIGVTHEGRKLNQNSFRKIVSELTQEDKKTLIDEFDEGFEGVYRYLEMYTNK was tested. Which “effect of a mutation on the interaction” value did it give?
Answer: decreasing interaction strength
